Assay results taken from the nanobody polyreactivity screen of Harvey et al. (2022).

Assay: yeast display, Sf9 membrane polyspecificity reagent, FACS + sequencing; frameworks hold sequencing errors
Summary of the method: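 After 36–48 hours of galactose induction, yeast (Saccharomyces cerevisiae BJ5465) displaying a synthetic nanobody library were stained at 4 °C for 1 hour with 10% biotinylated, detergent-solubilized Sf9 membrane reagent. Streptavidin microbeads enriched the stained cells before FACS sorting into low and high (top ~1%) gates on anti-HA and streptavidin fluorescence. Each clone's polyreactivity label reflects its gate of origin.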

Sequence	polyreactivity (PSR sort gate)
QVQLVESGGGLVQAGGSLRLSCAASGRTFGGNAMGWYRQAPGKERELVAAISLSGGTTYYADSVKGRFTISRDNAKNTVYLQMHSLKPEDTAVYYCAARFKSVDYVQYYYWGQGTQVTVSS	low polyreactivity
QVQLVESGGGLVQAGGSLRLSCAASGFTFDIYAMGWYRQAPGKERELVADITSGGSTDYADSVKGRFTISRDNAKNTVYLQMNSLKPEDTAVFYCNAAVFYEPEWQYDYWGQGTQVTVSS	low polyreactivity
QVQLVESGGGLVQAGGSLRLSCAASGRTFGRYAMGWSRQAPGKERELVAAINRGGSTKYADSVKGRFTISRDNAKNTVYLQMNSLKPEDTAVYYCAKDRHPAVHYDYWGQGTQVTVSS	low polyreactivity
QVQLVESGGGLVQAGGSLRLTCASSGITFGSYAMGWYTQAPGKERELVAAITWRGGSTFYADSVKGRFTISRDNAKITVYLQMNSLKPEDTAVYYCAATLTKYLPRYYWGHGTQVTVSS	low polyreactivity
QVQLVESGGGLVQAGGSLRLSCAASGSTVVYYAMGWYRQAPGKERELVAAISSSGGTTYYADSVKGRFTISRDNAKNRVYLQMKSLKPEDTAVYYCAAPYASRGNEYWGQGTQVTVSS	high polyreactivity
QVQLVESGGGLVQAGGSLRLSCAASGRIFYTYAMGWYRQSPGKERELVAAISWGGGRTYYADSVKGRFTISRDNAKNTVYLQMNSLKPEDTAVYYCNAVSLKFTRKYDYWGQGTQVTVSS	high polyreactivity
QVQLVESGGGLVQAGGSLRLSCAASGLTFWEYAMGWYRQAPGKERELVAAITWGGNTYYADSVKGRFTISRDNAKNTVYLQMNSLKPEDTAVYYCAARGYYLTGGFRRYYYWGQGTQVTVSS	high polyreactivity
QVQLVESGGGVVQAGGSLRLSCAASGFILRAYAMGWYRQAPGKERELVAAITSATSTNYADSVKGRFTISRDNAKNTVYLQMNSLKPEDTAVYYCAADGGGGEFSYDSWGQGTQVTVSS	low polyreactivity
QVQLVESGGGLVQAGGCLRLSCAASGSTFPIYDMGWYRQAPGKERELVAAITYSGGSTNYADSVKRRFTNSRDNAKTSVYFQMNSLKPDDTAVYYCAARYTAYIQSGMGYWGQGSQVTVSS	high polyreactivity
QVQLVESGGGLVQAGGSLRLSCAASGSIFDVYAMGWYRQAPGKERELVAAITGGGSTYYADSVKGRFTISRDNAKNSVYLQMNSLKPEDTAVYYCNADRRRRSGGFAGWHFQRNEYWGHGTQVTVSS	low polyreactivity
QVQLVESVGGLVQAGGSLRLSCAASVRTFYNYSMGWYRQAPGKERELVAGISRRGGSTYYADSVKGRFTISRDNAKNTVYLQMNSLKPEDTAVYYCIEDLVRPGYYRYDYRGQGTQVTVSS	high polyreactivity
QVQLVESGGGLVQAGGSLRLSCAAYGYTFRYNAMGWYRQAPGKERELVATITRGGSTNYADSVKGRFTISRDNAKNTVYLQMNSLKPEDTAVYYCNKEAAPRGFVPSYYGRDYWGQGTQVTVSS	low polyreactivity
QVQLVESGGGLVQAGGSLRLSCAASGSTSVQYAMGWYRQAPGKERELVAAIDRSGGSTSYADSVKGRFTISRDNAKNTVYLQMNTLKPEDTAVYYCNADPVRSTYSYDYWGQGTQVTVSS	low polyreactivity
QVQLVESGGGLVQAGGSLRLSCAASGRIFGYYAMGWYRQAPGKERELVARISSSGGSTYYADSVKGRFTISRDNAKNTVYLQMNSLKPEDTAVYYCNTASNRYPGWRAEFDYWGQGTQVTVSS	low polyreactivity
QDQLVDSGGGLVQAGGSLRLSCAASGFIFWYYAMGWYRQEPGKERELVAAITSGGNTNYADSVKGRFTISRDNAKNTFYLQMNSLKPEDTAVYYCATGRASGREHDSWGHGTQVTVSS	low polyreactivity
QVQLVESGGGLVQAGGSLRLSCAASGNTFIPNAMGWSRQAPGKETELVAAIRASGGSTYYADSVKGRFTISRDNAKNTVYLQMNSLKPEDTAVYYCNADIWYKTYDYWGQGTQVTVSS	low polyreactivity
QVQLVESGGGLVQAGGSLRLSCAASGFIFLDYAMGWYRQAPGKERELVAAISRSGGSTYYADSVKGRFTISRDYAKNTVYLQMNSLKPEDTAVYYCAAAFYGGGTWDSYWGQGTQVTVSS	high polyreactivity
KVQLQESDGALVQAGGSLRLSCAASGSISPQYYMGWYRQAPGKEREFVAISKGTTTYYADSVKGRLTISRVNAKNTVYLQMNSLKPEDTAVYCCAAGRWLQKVPAYWDQGTQVTVSS	low polyreactivity
QVQLVESGGGLVQAGGSLRLSCAASGYIFLYYTMGWYRQAPGKERELVAAITIGGGTYYADSVKGRFTISRDNAKNTVYLQMNSLKPEDTAVYYCNADYASYYRYSRPLEMNYWGQGTQVTVSS	low polyreactivity
QVQLVESGGGLVQAGGSLRLSCAASGFIIDVYAMGWYRHAPGKERELVAAISRSGGSTYYADSVKGRFTISRDNAKNSVYLQMNSLKPEDTAVYYCNAPGVTRAYLVGYDYWGQGSQVTVSS	low polyreactivity
QVQLVESGGGLVQAGGSLRLSCAASGSIFYWYAMGWYRPAPGKERELVAAITSSSGRTRYADSVKGRFTISRDNAKNTVYLQMNSLKPEDTAVYYCAAGRWGSYYTPRPYGYWGQGTQVTVSS	high polyreactivity
QVQLVESGGGVVQAGGTLLLICAASGSTFIVNAMVWYRQAPRKERELVAAITGSGGNTYYADSVKGRFTISRDNAKNTVYLQINTLKPEDTAVYYCAAETYYGRIYWYIRDYWGQGTQVSVSS	low polyreactivity

Sequence	polyreactivity (PSR sort gate)
QVQHVESGGGLVQAGGSLRLTCAASGRTFGVYAMGWYRQAPGKEREFVAVISWSDDSTYYADSVKGRFTISRDYAKNTVNLQMNSLKPEDTAVYYCNADDYLVYSGSHYGYWGQGTQVTVSS	low polyreactivity
QVQLVESGGGLVQAGGSLRLSCAASGSTFNLNAMGWYRQAPGKERELVAAIDSGGRTNYADSVKGRFTISRDNAKNTVYLQMNSLKPEDTAVYYCAARVLPYLTPRRQMYYWGQGTQVTVSS	low polyreactivity
QVQLVESGGGLVQAGGSLRLSCSASGIIFSEYAMVWYRQAPGKERELVAAISKSSGSTRYADSVKGRFTISRDNAKNTVYLQMNSLKPEVTAVYYCAAVYRGVVVYGYWGQGTQVTVSS	high polyreactivity
QVQLVESGGGLVQAGGSLRLSCAASGRIIYGYTMGWYRQAPGKERELVAVISRGGSTNYADSVKGRFSISRDNAKYTVYLQMNSLKPEDTAVYYCAATTKLPRGNYWYYYWGQGTQVTVSS	high polyreactivity
QVQLVESGGGLVQAGGSLRLSCAASGRTFQTNAMGWYRQAPGKERELVAAISWSGGRTYYADSVKGRFTISRDNAKNTVYLQMNSLKPEDTAVYYCAARQWYRYKVRFDYWGQGTLVTVSS	high polyreactivity
QVQLVESGGGLVQAGGSLRLSCAASGNIFSRNAMGWYRQAPGKERELVASIDNSTSGTYYADSVKGRFTISRDNAKNTVYLQMKSLKPEDTAVYYCAATPLVDGSSIPREGDYWGQGTQVSVSS	low polyreactivity
QVQLVESGGGLVPAGGSLRLRCAASGYIFRQNAMGWYRQAPGKERELVAVITARGGSTYYADSVKGRFTISRDNEKNTVYLQMNSLKPEDTAVYYCNARYYRRQYRGGAYWGQGTQVTVSS	low polyreactivity
QVQLVESGGGLVQAGGSLRLSCAASGSIFEFYTMGWYRQAPGKERELVAAITASGGSTYYADSVKGRFTISRDNAKNTVYLQMNSLKPEDTAVYYCAARFRKQSKTPSPRRYDSWGQGTQVTVSS	high polyreactivity
QVQLVESGGGLVQAGGSLRFSCAASGSTFTTNVMGWYRQAPGKERELVAAISWSSGSTYYADSVKGRFTISRDNAKNTVYLQMNSLKPEDTAVYYCAARLVIFYPYSRYYYWGQGTQVTVSS	high polyreactivity
QVQLVESGGGLVQAGGSLRLSCAASGIIFFSYAMGWYRQAPGKERELVAAISGTGGNTYYADSVKGRFTISRDNAKNTVYLQMNSLKPEDTAVYYCAADQEWYYYFDSFAYYILGYWGQGTQVTVSS	high polyreactivity
QFQLVESGGGLVQAGGSLRLSCAASGGTFGWNAMGLYRQAPGKERELVAAITSSGGDTYYADSVKGRFTISRDNAKNTVYLQMNSLKPEDTAVYYCAAEDGRQYGYWGQGTQVTVSS	low polyreactivity
QVQLQESGGGLGQAGRSLRHSFAASGNIFDAGIMGWYRQAPGEERELVACITDGGSTNYADSVKRRFTISRDNAKNTVYLQMNSQKPEDTAVYYCAASWDTIGLFAYWGQGTQVTVSS	high polyreactivity
QVQLVESGGGLVQAGGSLRLSCAASGFIFRYYAMGWYRQAPGKERELVAAINTGGTTYYADSVKGRFTISRDNAKNTVYLQMNSLKPEDTAVYYCATDGSPGYDWGQGTQVTVSS	high polyreactivity
QVQLVESGGGLVQAGGSLRLSCAASGSTFAGNGMGWSRQAPGKERELVAGIDVTGGSTYYADSVKGRFTISRDNAKNTVYLQMNSLKPEDTAVYYCNARYVYHSSFAGFDYWGQGTQVTVSS	low polyreactivity
QVQLVESGRGLVQAGGSLRLSCAASGGTFYIYAMGWYRQAPGKERELVAVISISDASTYYADSVKGRFTFSRDNAKNTVYLQMNSLKPEDTAVYYCNAKSNPAGSYPSEHSGYDSWGQGTQVTVSS	low polyreactivity
QVQLVESGGGLVQAGGILRLSSAASGFIFKANAMGWSRQAPGKERELVAVITRRGGSTYYADSVKGSFTISRDNAKNTVYLQMNSLKREDTAVYYSAKEGSARYGPSDAYDYWGQGTQVTVSS	high polyreactivity
QVQLVESGGGLVQAGGSLRLSCAASGNIFAIYAMGWYRPAPGKEREFVAAIDWSVASTYYADSVKGRFTISRDNAKNTVYLKMNSLKPEDTAVYYCAAELYCLKYGYYLSYDYWGQGTQVTVSS	high polyreactivity
QVQLEESGGGLVQAGGSLRLSCAASGSISSFNTMGWYRQAPGKERELVAAITRDGSTYYADSVKGRFTISRDNAKNTVYLQMNSLKPEDTAVYYCAARGWYATWLYYYWGQGTQVTVSS	high polyreactivity
QVQLVESGGGLVQAGGRLRLSCAASGSTFFKYDMGWYRQAPGKERELVAVITWSGGTTFYADSVKGRFTISRDNAKNTVYLQMNSLKPEDTAVYYCAADYYGYRYDYWGQGTQVTVSS	low polyreactivity
QVQLVESGGGLVQAGRSLRLSCAASGFIFRRYAMGWYRQAPGKEREFVAAISSGDDTDYADSVKGRFTISRDNAKNTVYLQMNSLKPEDTAVYYCAADHRYSVKYYYWGQGTQVTVSS	low polyreactivity
QVQLVESGGGLVQAGGSLRLSCAASGSIFPRNAMGWYRQAPGKERELVAAITVSDGRTYYADSVKGRFTISRDNAKNTVYLQMNSLKPEDTAVYYCAAGYTYYSLYGYWGQGTQVTVSS	low polyreactivity
